# Test results published in the supplement of paper PMC12042874.
# ± gives the uncertainty stated by the source.
# Assay: amyloid nucleation score (Sup35N fusion, yeast selection) (log enrichment); library NNK3; higher = more nucleation; inactive = no reads after selection
# Procedure, shortened: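 Three technical output replicates were used for random libraries. Psi-negative yeast expressing peptides of 20 random codons fused to Sup35N were induced with 100 μM copper sulfate for 24 hours and grown 7 days at 30°C on medium lacking adenine and uracil, and input and output plasmid inserts were Illumina-sequenced, excluding sequences with under 100 input reads. The nucleation score is the DiMSum log enrichment of output over input reads, centred on the mode score of non-aggregating sequences.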
row,Substance,amyloid nucleation score
1,CYAGRLSETSNWLLLCVELE,inactive
2,FFNKGCMFCSREAVIVQIWG,2.62 ± 0.082
3,MALSRILTALVVLLLTVVVC,inactive
4,ETWEIGRSKMGHRDCFCNYM,inactive
5,LGDDVFSLAFGDNFKDHKFH,inactive
6,LGNIGVELVDRCDRYIYQPD,0.627 ± 0.2
7,VMRFHVLKVLACCVNGGFDL,2.73 ± 0.072
8,MLAGWSQFYGISRYLPENPV,inactive
9,WLVAEFQTYPMTQHLYVSMR,inactive
10,WGFVWRVFLLKMC,inactive
11,RNFARCRFNPPMTHHSFFNT,inactive
12,AIRPKSGAWSHLCYASIG,inactive
13,EILRMCH,inactive
14,LRGFMISSWDFFADGSDVRL,inactive
15,DSFNLSDSGWSTLYIRAWDG,inactive
16,RSQALFLNWTCDCGGYINQI,1.01 ± 0.21
17,RPAVLGPAFRYSSLAP,inactive
18,REVRNWRERVCQMRVLVVMC,inactive
19,GMDCNKIRLASSWVYYLTSE,inactive
20,SADQSCYSPHFGGQRDRRWL,inactive
21,HKRLGPLHYRLICG,inactive
22,YIGRAGQFDRRFFGSLCCAM,inactive
23,RFWRCWAMINR,inactive
24,LAVFSEARNEGTTQFYYLLK,inactive

row,Substance,amyloid nucleation score
1,CCQLGESTENGLFSDDWRCE,inactive
2,YCETLTRY,inactive
3,YLRHIVFNRQDYMSTRLCKH,inactive
4,NVDVYVGVPAQVGFVILFWT,-0.241 ± 0.61
5,IGMMYVIGIYLIGGNYSIR,inactive
6,NMRYKHAWNLEVVVLKVHVY,inactive
7,DGLQSN,inactive
8,VTMVSYYTCGEHNKVNILMQ,1.42 ± 0.097
9,VMSSMWLAGQTWLSYNCICD,2.35 ± 0.075
10,WKGMITFGI,inactive
11,RYFNGPYLGRTVFEFT,inactive
12,LLQICGVYYYPIVSYSPDDF,inactive
13,TERVCVCVTFVLW,1.23 ± 0.16
14,CVLAFVVVLLGWGHSSGAGG,0.825 ± 0.2
15,TKCLRVVKRTTYGSQEFLRK,inactive
16,NECYYLGRNWPYYGKSDMLL,0.379 ± 0.27
17,LGNSPVHST,inactive
18,VAIIAYQWSIPSMAGPVNRR,0.652 ± 0.28
19,IFILTMSDWVFL,1.91 ± 0.062
20,RGLRTKVGMSVRNCEYRYVM,-0.455 ± 1.1
21,SNYSV,inactive
22,NRACKLCSFKSGQRSNTMGF,inactive
23,KTSVEISN,inactive
24,LDTLLVYHFRKERVLNTGVN,inactive

row,Substance,amyloid nucleation score
1,ANAFTGIRCVQVRRRCSLDM,inactive
2,REGRVLVWYSYYKFYTRHYF,0.004 ± 0.72
3,WNFIVFGFYLDGRILFISYL,-0.755 ± 0.7
4,RYLITVAIPLSIGVLSTV,inactive
5,EMLSIENGRFTKCKLGECVR,-0.137 ± 0.52
6,IDLVLFSTCVNALVVESFGG,inactive
7,LSTIIHDFIGCCAVNAQLIG,inactive
8,LGYISFGFPVEDNWVHLACD,inactive
9,NYYFT,inactive
10,RMTMRRSSWQVEGITSLRIL,inactive
11,SAACPWNWLDGASPPLRATA,inactive
12,GISRYFYSMCETWMNCHSGV,0.793 ± 0.28
13,NVRVYSFQMTVECKELLDSQ,inactive
14,TLPLTHYVYVVMLKSSSTGC,inactive
15,RLILDNHDTSFCLIHGSRMI,inactive
16,KQKMYTAVPKGIQNILEA,inactive
17,LYSGFRGMPKYTDKNCMGRV,inactive
18,PNYKNYLGGNRVVS,inactive
19,HYTVDANNIVFYILH,3.11 ± 0.076
20,TLFWMSYWMRPSNIHCCVRM,inactive
21,SRFRFMGNVRQFLQPYRRLH,0.347 ± 0.2
22,MCIHSITECRS,inactive
23,YITNVQVIGMMVINSNHKGV,3.42 ± 0.058
24,YWQDGQ,inactive

row,Substance,amyloid nucleation score
1,TSCRLRV,inactive
2,TYTSVGETS,inactive
3,LIKVTS,inactive
4,LDMFHSEIIFLMWYRGWVNA,inactive
5,NMYGYADYYRAFRDSN,inactive
6,NFSCCLSCRQHMLAIFM,0.988 ± 0.13
7,SKVWRYI,inactive
8,TFLNFSVIGVTSLGTDRAYD,inactive
9,LNCQYTFHAKCSFLHPSLL,0.928 ± 0.21
10,NSLSIVM,-0.523 ± 1.1
11,AVMDGRNMSYSMYIRCCMWL,2.7 ± 0.074
12,FGMVFHISIACKWTGFSMR,inactive
13,MWWAINCWSSKFHIYSIDTY,inactive
14,VSNLLIKVTRHASYDQSS,inactive
15,GWSYRDLTMVGVNELFV,inactive
16,TENCEFFTNPPARPYG,inactive
17,DLNIVIPRIRAHRA,inactive
18,MSKWYYRWASYNCWFFDRPV,inactive
19,RSARQHFPRNRGGNHSSDRV,0.204 ± 0.43
20,NNCSRICM,inactive
21,QTAFQRL,inactive
22,NGSSFCAKCVNVW,-0.418 ± 0.98
23,GMLGLMAGKNLEGADRL,inactive
24,HSSVDIQRFCIFYINQCVPK,2.45 ± 0.072

row,Substance,amyloid nucleation score
1,STAWALAIAAVDRNFDSGWW,0.009 ± 1.1
2,IWSIQLSFKIASSCNFATG,inactive
3,HSNECFLGDSSNWWVYWAVR,inactive
4,CSNLVLP,-0.765 ± 1.4
5,VRDIRAIL,-0.551 ± 1.1
6,CQTGRYRESALSVLARKLNA,inactive
7,PFCRMKLGMTLRALLLVMGS,inactive
8,RHRFSTSGRYFVSIRLVSSF,inactive
9,LALCSTCFNLVYIICVGKKW,inactive
10,VTFSCLYVFFYRQVIRCFGM,0.059 ± 0.26
11,DGNGLNTRGNLTSGIFHRQY,inactive
12,RAIGLGAFGIRRGGTRKWNE,-1.06 ± 2.5
13,HLWVNRDQWLVVLTEFSRFW,inactive
14,FKFALPHSNIGFTISSRFGC,0.478 ± 0.16
15,GVISVFWMLWYLYPSLL,inactive
16,ITMCRDFLLAPWPCLLQPSH,inactive
17,NELVLKYRSTVVLVKLW,inactive
18,LSNIICSCQLCWACPSLSVM,2.47 ± 0.057
19,VNLFHSYCMAISRIITISSL,inactive
20,NWCILTLNGVSGRIRLPCWS,0.405 ± 0.19
21,KTRSAMRDLVVSFWYF,1.65 ± 0.075
